Patent publication US10358663B2, “Method of production of 2,4-dihydroxybutyric acid” (ADISSEO FRANCE S.A.S., priority 2010, dated 2019)

Assays:
Format in all cases: biochemical, Escherichia coli
[1] = substrate: O=C(O)C[C@H](O)C(=O)O; test: Malate kinase assay, LysC E119P; conditions: other: malate, pH 7.5, 30° C., average of at least two independent experiments
Method: (§1) Enzymatic assay: Aspartate or malate kinase activities were assayed by coupling ADP production in the kinase reactions to NADH oxidation in the presence of phosphoenolpyruvate, pyruvate kinase, and lactate dehydrogenase.
(§2) Aspartate (or Malate) Kinase aspartate (or malate)+ATP→4-phospho-(L)-aspartate (or 4-phospho-(L)-malate)+ADP
(§3) The assay mixture contained 50 mM Hepes (pH 7.5), 50 mM KCl, 5 mM MgCl2, 0.24 mM NADH, 0.96 mM ATP, 0.96 mM PEP, 9 μg/mL of lactate dehydrogenase (Sigma, L2500), 12.4 μg/mL pyruvate kinase (Sigma, P1506), and appropriate amounts of purified aspartate (malate) kinase. Reactions were started by adding 50 mM (L)-aspartate or (L)-malate. Enzymatic assays were carried out at 30° C. in 96-well flat bottomed microtiter plates in a final volume of 250 μL. The reactions were followed by the characteristic absorption of NADH at 340 nm in a microplate reader (BioRad 680XR).
(§4) Mutant enzymes were expressed, purified and tested for aspartate and malate kinase activity as described in Example 1.

[2] = substrate: O=C(O)C[C@H](O)C(=O)O; test: Malate kinase assay, LysC E119Q; conditions: other: malate, pH 7.5, 30° C., average of at least two independent experiments
Method: as §1, §2, §3, §4

[3] = substrate: O=C(O)C[C@H](O)C(=O)O; test: Malate kinase assay, LysC E119S; conditions: other: malate, pH 7.5, 30° C., average of at least two independent experiments
Method: as §1, §2, §3, §4

[4] = substrate: O=C(O)C[C@H](O)C(=O)O; test: Malate kinase assay, LysC E119T; conditions: other: malate, pH 7.5, 30° C., average of at least two independent experiments
Method: as §1, §2, §3, §4

[5] = substrate: O=C(O)C[C@H](O)C(=O)O; test: Malate kinase assay, LysC E119V; conditions: other: malate, pH 7.5, 30° C., average of at least two independent experiments
Method: as §1, §2, §3, §4

[6] = substrate: O=C(O)C[C@H](O)C(=O)O; test: Malate kinase assay, LysC E119C; conditions: other: malate, pH 7.5, 30° C., average of at least two independent experiments
Method: as §1, §2, §3, §4

[7] = substrate: O=C(O)C[C@H](O)C(=O)O; test: Malate kinase assay, LysC E119G; conditions: other: malate, pH 7.5, 30° C., average of at least two independent experiments
Method: as §1, §2, §3, §4

[8] = substrate: O=C(O)C[C@H](O)C(=O)O; test: Malate kinase assay, LysC E119N; conditions: other: malate, pH 7.5, 30° C., average of at least two independent experiments
Method: as §1, §2, §3, §4

[9] = substrate: O=CC[C@H](O)C(=O)O; test: Malate semialdehyde dehydrogenase assay, Asd E241G; conditions: other: malate semialdehyde, reverse biosynthetic direction, pH 9, 0.25 mM NADP, 30° C.
Method: Enzymatic assay: Aspartate or malate semialdehyde dehydrogenase activities were assayed in the reverse biosynthetic direction by following the reduction of NADP during the oxidation of aspartate or malate semialdehyde to 4-phospho-(L)-aspartate or 4-phospho-(L)-malate, respectively (Roberts et al., 2003). (L)-aspartate semialdehyde (or (L)-malate semialdehyde)+NADP+Pi→4-phospho-(L)-aspartate (or 4-phospho-(L)-malate)+NADPH
The assay mixture contained 200 mM Hepes (pH 9), 50 mM K2HPO4, 0.25 mM NADP. Reactions were started by adding (L)-aspartate semialdehyde or (L)-malate semialdehyde. (L)-Aspartate semialdehyde was added in the form of L-aspartic acid β-semialdehyde hydrate trifluoroacetate (maintained at pH3 to prevent degradation) which is a suitable substrate for enzymatic tests of homoserine dehydrogenase and aspartate semialdehyde dehysrogenase (Roberts et al., 2003). Unstable malate semialdehyde was produced freshly prior to the enzymatic tests by the deprotection of the stable malate semialdehyde derivative 2-[(4S)-2,2-dimethyl-5-oxo-1,3-dioxolan-4-yl]acetaldehyde (DMODA). […]
Enzymatic assays were carried out in 96-well flat bottomed microtiter plates in a final volume of 250 μL at 30° C. The reactions were followed by the characteristic absorption of NADPH at 340 nm in a microplate reader (BioRad 680XR).

B1: E. coli aspartate kinase LysC variant E119P, SEQ ID NO: 18 (Escherichia coli K-12; E119P) (protein)
chain: MSEIVVSKFGGTSVADFDAMNRSADIVLSDANVRLVVLSASAGITNLLVALAEGLEPGERFEKLDAIRNIQFAILERLRYPNVIREEIERLLENITVLAEAAALATSPALTDELVSHGPLMSTLLFVEILRERDVQAQWFDVRKVMRTNDRFGRAEPDIAALAELAALQLLPRLNEGLVITQGFIGSENKGRTTTLGRGGSDYTAALLAEALHASRVDIWTDVPGIYTTDPRVVSAAKRIDEIAFAEAAEMATFGAKVLHPATLLPAVRSDIPVFVGSSKDPRAGGTLVCNKTENPPLFRALALRRNQTLLTLHSLNMLHSRGFLAEVFGILARHNISVDLITTSEVSVALTLDTTGSTSTGDTLLTQSLLMELSALCRVEVEEGLALVALIGNDLSKACGVGKEVFGVLEPFNIRMICYGASSHNLCFLVPGEDAEQVVQKLHSNLFE
[1]
  Km: 19.0 mM
  Vmax: 0.71 µmol/mg/min

B2: E. coli aspartate kinase LysC variant E119Q, SEQ ID NO: 20 (Escherichia coli K-12; E119Q) (protein)
chain: MSEIVVSKFGGTSVADFDAMNRSADIVLSDANVRLVVLSASAGITNLLVALAEGLEPGERFEKLDAIRNIQFAILERLRYPNVIREEIERLLENITVLAEAAALATSPALTDELVSHGQLMSTLLFVEILRERDVQAQWFDVRKVMRTNDRFGRAEPDIAALAELAALQLLPRLNEGLVITQGFIGSENKGRTTTLGRGGSDYTAALLAEALHASRVDIWTDVPGIYTTDPRVVSAAKRIDEIAFAEAAEMATFGAKVLHPATLLPAVRSDIPVFVGSSKDPRAGGTLVCNKTENPPLFRALALRRNQTLLTLHSLNMLHSRGFLAEVFGILARHNISVDLITTSEVSVALTLDTTGSTSTGDTLLTQSLLMELSALCRVEVEEGLALVALIGNDLSKACGVGKEVFGVLEPFNIRMICYGASSHNLCFLVPGEDAEQVVQKLHSNLFE
[2]
  Km: 39.9 mM
  Vmax: 0.01 µmol/mg/min

B3: E. coli aspartate kinase LysC variant E119S, SEQ ID NO: 22 (Escherichia coli K-12; E119S) (protein)
chain: MSEIVVSKFGGTSVADFDAMNRSADIVLSDANVRLVVLSASAGITNLLVALAEGLEPGERFEKLDAIRNIQFAILERLRYPNVIREEIERLLENITVLAEAAALATSPALTDELVSHGSLMSTLLFVEILRERDVQAQWFDVRKVMRTNDRFGRAEPDIAALAELAALQLLPRLNEGLVITQGFIGSENKGRTTTLGRGGSDYTAALLAEALHASRVDIWTDVPGIYTTDPRVVSAAKRIDEIAFAEAAEMATFGAKVLHPATLLPAVRSDIPVFVGSSKDPRAGGTLVCNKTENPPLFRALALRRNQTLLTLHSLNMLHSRGFLAEVFGILARHNISVDLITTSEVSVALTLDTTGSTSTGDTLLTQSLLMELSALCRVEVEEGLALVALIGNDLSKACGVGKEVFGVLEPFNIRMICYGASSHNLCFLVPGEDAEQVVQKLHSNLFE
[3]
  Km: 15.7 mM
  Vmax: 0.83 µmol/mg/min

B4: E. coli aspartate kinase LysC variant E119T, SEQ ID NO: 24 (Escherichia coli K-12; E119T) (protein)
chain: MSEIVVSKFGGTSVADFDAMNRSADIVLSDANVRLVVLSASAGITNLLVALAEGLEPGERFEKLDAIRNIQFAILERLRYPNVIREEIERLLENITVLAEAAALATSPALTDELVSHGTLMSTLLFVEILRERDVQAQWFDVRKVMRTNDRFGRAEPDIAALAELAALQLLPRLNEGLVITQGFIGSENKGRTTTLGRGGSDYTAALLAEALHASRVDIWTDVPGIYTTDPRVVSAAKRIDEIAFAEAAEMATFGAKVLHPATLLPAVRSDIPVFVGSSKDPRAGGTLVCNKTENPPLFRALALRRNQTLLTLHSLNMLHSRGFLAEVFGILARHNISVDLITTSEVSVALTLDTTGSTSTGDTLLTQSLLMELSALCRVEVEEGLALVALIGNDLSKACGVGKEVFGVLEPFNIRMICYGASSHNLCFLVPGEDAEQVVQKLHSNLFE
[4]
  Km: 26.8 mM
  Vmax: 0.33 µmol/mg/min

B5: E. coli aspartate kinase LysC variant E119V, SEQ ID NO: 26 (Escherichia coli K-12; E119V) (protein)
chain: MSEIVVSKFGGTSVADFDAMNRSADIVLSDANVRLVVLSASAGITNLLVALAEGLEPGERFEKLDAIRNIQFAILERLRYPNVIREEIERLLENITVLAEAAALATSPALTDELVSHGVLMSTLLFVEILRERDVQAQWFDVRKVMRTNDRFGRAEPDIAALAELAALQLLPRLNEGLVITQGFIGSENKGRTTTLGRGGSDYTAALLAEALHASRVDIWTDVPGIYTTDPRVVSAAKRIDEIAFAEAAEMATFGAKVLHPATLLPAVRSDIPVFVGSSKDPRAGGTLVCNKTENPPLFRALALRRNQTLLTLHSLNMLHSRGFLAEVFGILARHNISVDLITTSEVSVALTLDTTGSTSTGDTLLTQSLLMELSALCRVEVEEGLALVALIGNDLSKACGVGKEVFGVLEPFNIRMICYGASSHNLCFLVPGEDAEQVVQKLHSNLFE
[5]
  Km: 39.7 mM
  Vmax: 0.29 µmol/mg/min

B6: E. coli aspartate kinase LysC variant E119C, SEQ ID NO: 12 (Escherichia coli K-12; E119C) (protein)
chain: MSEIVVSKFGGTSVADFDAMNRSADIVLSDANVRLVVLSASAGITNLLVALAEGLEPGERFEKLDAIRNIQFAILERLRYPNVIREEIERLLENITVLAEAAALATSPALTDELVSHGCLMSTLLFVEILRERDVQAQWFDVRKVMRTNDRFGRAEPDIAALAELAALQLLPRLNEGLVITQGFIGSENKGRTTTLGRGGSDYTAALLAEALHASRVDIWTDVPGIYTTDPRVVSAAKRIDEIAFAEAAEMATFGAKVLHPATLLPAVRSDIPVFVGSSKDPRAGGTLVCNKTENPPLFRALALRRNQTLLTLHSLNMLHSRGFLAEVFGILARHNISVDLITTSEVSVALTLDTTGSTSTGDTLLTQSLLMELSALCRVEVEEGLALVALIGNDLSKACGVGKEVFGVLEPFNIRMICYGASSHNLCFLVPGEDAEQVVQKLHSNLFE
[6]
  Km: 19.7 mM
  Vmax: 0.97 µmol/mg/min

B7: E. coli aspartate kinase LysC variant E119G, SEQ ID NO: 14 (Escherichia coli K-12; E119G) (protein)
chain: MSEIVVSKFGGTSVADFDAMNRSADIVLSDANVRLVVLSASAGITNLLVALAEGLEPGERFEKLDAIRNIQFAILERLRYPNVIREEIERLLENITVLAEAAALATSPALTDELVSHGGLMSTLLFVEILRERDVQAQWFDVRKVMRTNDRFGRAEPDIAALAELAALQLLPRLNEGLVITQGFIGSENKGRTTTLGRGGSDYTAALLAEALHASRVDIWTDVPGIYTTDPRVVSAAKRIDEIAFAEAAEMATFGAKVLHPATLLPAVRSDIPVFVGSSKDPRAGGTLVCNKTENPPLFRALALRRNQTLLTLHSLNMLHSRGFLAEVFGILARHNISVDLITTSEVSVALTLDTTGSTSTGDTLLTQSLLMELSALCRVEVEEGLALVALIGNDLSKACGVGKEVFGVLEPFNIRMICYGASSHNLCFLVPGEDAEQVVQKLHSNLFE
[7]
  Km: 16.0 mM
  Vmax: 0.49 µmol/mg/min

B8: E. coli aspartate kinase LysC variant E119N, SEQ ID NO: 16 (Escherichia coli K-12; E119N) (protein)
chain: MSEIVVSKFGGTSVADFDAMNRSADIVLSDANVRLVVLSASAGITNLLVALAEGLEPGERFEKLDAIRNIQFAILERLRYPNVIREEIERLLENITVLAEAAALATSPALTDELVSHGNLMSTLLFVEILRERDVQAQWFDVRKVMRTNDRFGRAEPDIAALAELAALQLLPRLNEGLVITQGFIGSENKGRTTTLGRGGSDYTAALLAEALHASRVDIWTDVPGIYTTDPRVVSAAKRIDEIAFAEAAEMATFGAKVLHPATLLPAVRSDIPVFVGSSKDPRAGGTLVCNKTENPPLFRALALRRNQTLLTLHSLNMLHSRGFLAEVFGILARHNISVDLITTSEVSVALTLDTTGSTSTGDTLLTQSLLMELSALCRVEVEEGLALVALIGNDLSKACGVGKEVFGVLEPFNIRMICYGASSHNLCFLVPGEDAEQVVQKLHSNLFE
[8]
  Km: 27.1 mM
  Vmax: 0.13 µmol/mg/min

B9: E. coli aspartate semialdehyde dehydrogenase Asd variant E241G, SEQ ID NO: 58 (Escherichia coli K-12; E241G) (protein)
chain: MKNVGFIGWRGMVGSVLMQRMVEERDFDAIRPVFFSTSQLGQAAPSFGGTTGTLQDAFDLEALKALDIIVTCQGGDYTNEIYPKLRESGWQGYWIDAASSLRMKDDAIIILDPVNQDVITDGLNNGIRTFVGGNCTVSLMLMSLGGLFANDLVDWVSVATYQAASGGGARHMRELLTQMGHLYGHVADELATPSSAILDIERKVTTLTRSGELPVDNFGVPLAGSLIPWIDKQLDNGQSRGEWKGQAETNKILNTSSVIPVDGLCVRVGALRCHSQAFTIKLKKDVSIPTVEELLAAHNPWAKVVPNDREITMRELTPAAVTGTLTTPVGRLRKLNMGPEFLSAFTVGDQLLWGAAEPLRRMLRQLA
[9]
  Km: 0.18 mM
  Vmax: 0.09 µmol/mg/min
